For two sequences, binding signal (% positive events) results are on record in article PMC6889386.

For the series, the target named is EGFR on A549-derived exosomes (A-Exo) (UniProt P00533). The experiment in a line: flow cytometry. The following applies: MSN-aptamer conjugates incubated with PKH67-labelled exosomes in cell medium or rat blood (37 C, 1-4 h, static or 100 rpm), buffer details not given. Background: Flow cytometry measures light scatter and fluorescence of single cells or particles in a stream.

As to “TACCAGTGCGATGCTCAGTGCCGTTTCTTCTCTTTCGCTTTTTTTGCTTTTGAGCATGCTGACGCATTCGGTTGAC [anti-EGFR DNA aptamer on negatively charged MSN (MSN-AP-)]”, the binding signal (% positive events) (amino-functionalized (terminus not stated), EDC/NHS-conjugated to MSN-COOH nanoparticle) turned out to be 8.1. “TACCAGTGCGATGCTCAGTGCCGTTTCTTCTCTTTCGCTTTTTTTGCTTTTGAGCATGCTGACGCATTCGGTTGAC [anti-EGFR DNA aptamer on positively charged MSN (MSN-AP)]”: the binding signal (% positive events) (carboxyl-functionalized (terminus not stated), EDC/NHS-conjugated to MSN-NH2 nanoparticle) is 26.6.
